Molecular target: the molecule itself
Experiment: AFM imaging + single-molecule force spectroscopy (AFM-SMFS); purified ectodomains in 50 mM TrisHCl/150 mM NaCl/1 mM CaCl2 pH 7.5; imaging on freshly cleaved mica, tapping mode in liquid; SMFS on NTA-Ni2+ coverslips through the His tags, differing persistence length across a trace taken as two cadherins stretched in parallel

B1: His-tagged full murine PCDH15 ectodomain (domain or fragment)
chain: not shown
notes: protocadherin 15 (PCDH15), murine, full ectodomain (11 EC domains), UniProtKB Q99PJ1; also called protocadherin 15; full-length PCDH15 ectodomain; not shown: His tag, C-terminal, kept
B1: binds.
